Test system: inflammatory disease, immunological disease and/or autoimmunological disease
Assay: Treatment of patients: condition as stated by patient and physician (pain, fatigue, daily life, duration of effect, relapses)
Assay type: in vivo, human
Details: Patient 11, ankylosing spondylitis; within half a year the biologics lost their effect
Description: All patients treated in the following Inventive Examples, Reference Examples and Comparative Examples were selected solely based on their diagnosis without performing a preselection in view of other parameters.
Annotation to the Tables 8A and B and 9 to 10: Patients were usually examined and treated in the same session. The success of the treatment or the effect thereof was then determined in the following session, usually one week later, and the next treatment performed as indicated in the tables.

B1: Cimzia®: biologic, certolizumab pegol (antibody, chains of the INN, looked up, V domains shown)
VH: EVQLVESGGGLVQPGGSLRLSCAASGYVFTDYGMNWVRQAPGKGLEWMGWINTYIGEPIYADSVKGRFTFSLDTSKSTAYLQMNSLRAEDTAVYYCARGYRSYAMDYWGQGTLVTVSS
VL: DIQMTQSPSSLSASVGDRVTITCKASQNVGTNVAWYQQKPGKAPKALIYSASFLYSGVPYRFSGSGSGTDFTLTISSLQPEDFATYYCQQYNIYPLTFGQGTKVEIK
modifications: Fab' PEG (pegol)
For B1, the “effect of earlier treatment with biologics (patient's report)” value was “had little effect from the outset”.
